Measurements published in patent publication US20230265171A1.
Read-outs that look alike come from different tables or passages of the source.

Experiments:
MERS CoV S1 (MERS CoV) = MERS CoV S1 (MERS CoV) (UniProt K9N5Q8); assay: ELISA, antigen coated at 2 µg/mL
HCoV-229E S1 (HCoV-229E) = HCoV-229E S1 (HCoV-229E) (UniProt P15423); assay: ELISA, antigen coated at 2 µg/mL
SARS CoV RBD (SARS-CoV) = SARS CoV RBD (SARS-CoV) (UniProt P59594); assay: ELISA, antigen coated at 2 µg/mL
HCoV-NL63 S1 (HCoV-NL63) = HCoV-NL63 S1 (HCoV-NL63) (UniProt Q6Q1S2); assay: ELISA, antigen coated at 2 µg/mL
[1] = molecular target: SARS-CoV-2 spike glycoprotein S1 region (SARS-CoV-2) (UniProt P0DTC2); assay: ELISA, coated antigen
[2] = molecular target: SARS-CoV-2 spike receptor binding domain (RBD) (SARS-CoV-2) (UniProt P0DTC2); assay: ELISA, coated antigen
[3] = molecular target: Dengue serotype 1 envelope antigens on pseudotype virus (Dengue virus serotype 1); assay: cell-based or functional assay
[4] = molecular target: SARS-CoV-2 spike glycoprotein S1 region (SARS-CoV-2) (UniProt P0DTC2); assay: ELISA, coated antigen; remark: listed apart in the source
[5] = molecular target: SARS-CoV-2 spike receptor binding domain (RBD) (SARS-CoV-2) (UniProt P0DTC2); assay: ELISA, coated antigen; remark: listed apart in the source
[6] = molecular target: SARS-CoV-2 spike on GFP reporter pseudotype virus (SARS-CoV-2) (UniProt P0DTC2); assay: cell-based or functional assay
[7] = molecular target: SARS-CoV-2 spike receptor binding domain (RBD) (SARS-CoV-2) (UniProt P0DTC2); assay: RBD:ACE2-His blocking ELISA, competitor ACE2-His

| Substance | EC50 (MERS CoV S1 (MERS CoV)) [mg/L] | EC50 (HCoV-229E S1 (HCoV-229E)) [mg/L] | EC50 (SARS CoV RBD (SARS-CoV)) [mg/L] | EC50 (HCoV-NL63 S1 (HCoV-NL63)) [mg/L] | EC50 [1] [mg/L] | EC50 [2] [mg/L] | Neutralization IC50 [3] [mg/L] | EC50 [4] [mg/L] | peak OD signal [4] [OD] | EC50 [5] [mg/L] | peak OD signal [5] [OD] | CoV-2 pseudotype neutralization IC50 [6] [mg/L] | IC50 [7] [mg/L] |
| --- | --- | --- | --- | --- | --- | --- | --- | --- | --- | --- | --- | --- | --- |
| IVIG (Gamunex) | 1330 | 96 | 1280 | 140 | 1380 | 1250 | 12.2 | 1410 | 1.99 | 1270 | 2.26 | – | – |
| SARS CoV mAb [CR3022] (antibody) | – | – | – | – | 0.078 | 0.088 | – | – | – | – | – | 100 | – |
| SARS CoV-2 mAb [SAD-S35] (antibody) | – | – | – | – | 0.058 | 0.057 | – | – | – | – | – | 0.26 | 1.1 |
